Assay results reported in article PMC6073767.

How the values were obtained:
[1] = confocal linescan, surface colocalisation, HEK293T co-expression; details: glycan lost; control: Panx2-FLAG
[2] = cell-surface biotinylation, NRK; details: glycan lost; control: wild-type Panx2
[3] = cell-surface biotinylation, AD293; details: glycan lost; control: wild-type Panx2
[4] = cell-surface biotinylation, HEK293T; details: glycan lost; control: wild-type Panx2

Protein	localisation_or_trafficking [1]	localisation_or_trafficking [2]	localisation_or_trafficking [3]	localisation_or_trafficking, other: surface fraction of total protein [4]
Panx2: N86Q-FLAG (protein) parent chain: MHHLLEQSADMATALLAGEKLRELILPGSQDDKAGALAALLLQLKLELPFDRVVTIGTVLVPILLVTLVFTKNFAEEPIYCYTPHNFTRDQALYARGYCWTELRDALPGVDASLWPSLFEHKFLPYALLAFAAIMYVPALGWEFLASTRLTSELNFLLQEIDNCYHRAAEGRAPKIEKQIQSKGPGITEREKREIIENAEKEKSPEQNLFEKYLERRGRSNFLAKLYLARHVLILLLSVVPISYLCTYYATQKQNEFTCALGASPDGPVGSAGPTVRVSCKLPSVQLQRIIAGVDIVLLCFMNLIILVNLIHLFIFRKSNFIFDKLNKVGIKTRRQWRRSQFCDINILAMFCNENRDHIKSLNRLDFITNESDLMYDNVVRQLLAALAQSNHDTTPTVRDSGIQTVDPSINPAEPDGSAEPPVVKRPRKKMKWIPTSNPLPQPFKEQLAIMRVENSKTEKPKPVRRKTATDTLIAPLLDAGARAAHHYKGSGGDSGPSSAPPAASEKKHTRHFSLDVHPYILGTKKAKTEAVPPALPASRSQEGGFLSQTEECGLGLAAAPTKDAPLPEKEIPYPTEPALPGLPSGGSFHVCSPPAAPAAASLSPGSLGKADPLTILSRNATHPLLHISTLYEAREEEEGGPCAPSDMGDLLSIPPPQQILIATFEEPRTVVSTVEF	decreases	–	–	–
Panx2: N86Q (protein) parent chain: MHHLLEQSADMATALLAGEKLRELILPGSQDDKAGALAALLLQLKLELPFDRVVTIGTVLVPILLVTLVFTKNFAEEPIYCYTPHNFTRDQALYARGYCWTELRDALPGVDASLWPSLFEHKFLPYALLAFAAIMYVPALGWEFLASTRLTSELNFLLQEIDNCYHRAAEGRAPKIEKQIQSKGPGITEREKREIIENAEKEKSPEQNLFEKYLERRGRSNFLAKLYLARHVLILLLSVVPISYLCTYYATQKQNEFTCALGASPDGPVGSAGPTVRVSCKLPSVQLQRIIAGVDIVLLCFMNLIILVNLIHLFIFRKSNFIFDKLNKVGIKTRRQWRRSQFCDINILAMFCNENRDHIKSLNRLDFITNESDLMYDNVVRQLLAALAQSNHDTTPTVRDSGIQTVDPSINPAEPDGSAEPPVVKRPRKKMKWIPTSNPLPQPFKEQLAIMRVENSKTEKPKPVRRKTATDTLIAPLLDAGARAAHHYKGSGGDSGPSSAPPAASEKKHTRHFSLDVHPYILGTKKAKTEAVPPALPASRSQEGGFLSQTEECGLGLAAAPTKDAPLPEKEIPYPTEPALPGLPSGGSFHVCSPPAAPAAASLSPGSLGKADPLTILSRNATHPLLHISTLYEAREEEEGGPCAPSDMGDLLSIPPPQQILIATFEEPRTVVSTVEF	–	decreases	decreases	decreases, ~1 vs approximately 4
